Experimental findings from patent US9260500B2, “Peptide and use thereof” (Takeda Pharmaceutical Company Limited, priority 2009, dated 2016) are described below.

For experiment [1], the target named is T1, human Y2 receptor (Homo sapiens, UniProt P49146).
T1 construct: expressed in transfected cells; membrane fraction
T1 sequence (P49146 1-381): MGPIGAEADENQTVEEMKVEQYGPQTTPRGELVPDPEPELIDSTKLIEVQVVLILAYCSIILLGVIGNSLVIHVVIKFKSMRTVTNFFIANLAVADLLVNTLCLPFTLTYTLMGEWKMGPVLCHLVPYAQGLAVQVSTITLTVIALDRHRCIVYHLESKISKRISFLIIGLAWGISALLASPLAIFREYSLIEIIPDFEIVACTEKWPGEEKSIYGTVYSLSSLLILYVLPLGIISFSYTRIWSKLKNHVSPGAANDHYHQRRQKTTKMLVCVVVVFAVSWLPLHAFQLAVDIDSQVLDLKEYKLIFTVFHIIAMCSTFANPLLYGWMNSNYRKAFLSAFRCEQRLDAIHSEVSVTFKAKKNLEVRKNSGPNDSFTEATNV
The experiment is described as follows: Receptor Binding Assay (RBA) for Human Y2, [125I]-PYY displacement on hY2R/CHO membrane fraction. Particulars: IC50 of test compound/IC50 of PYY(3-36) (PYY(3-36) taken as 1). Put shortly:
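Read-out is [125I]-PYY displacement from membranes of CHO/dhfr− cells stably transfected with human Y2R. Membranes were obtained by disrupting cells in a buffer of 10 mM NaHCO3, 5 mM EDTA and protease inhibitors.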

For experiment [2], the target named is T1, human Y2 receptor. Kind of experiment: Human Y2 Receptor G Protein Binding Assay (GBA), [35S]GTPγS. The class given is biochemical. Particulars: EC50 of test compound/EC50 of PYY(3-36) (PYY3-36 taken as 1), hY2R/CHO membrane fraction. Put shortly:
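Agonism measured as [35S]GTPγS binding, read by GF/C filtration and scintillation counting after 120 min at room temperature, using human Y2 membranes at 1 μg protein/mL in pH 7.4 Tris/MgCl2/NaCl/GDP buffer. Compound serially diluted 100 μM–1 nM; EC50 normalized to PYY(3-36) (ratio = compound/PYY).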
Background: GTPγS resists hydrolysis and so accumulates on activated G proteins.

Non-standard residues stand in square brackets, D forms with d. 4Pal = N[C@@H](Cc1ccncc1)C(=O)O; dHyp = O=C(O)[C@H]1C[C@H](O)CN1; Cha = N[C@@H](CC1CCCCC1)C(=O)O; d(αMeP) = C[C@]1(C(=O)O)CCCN1; dPip = O=C(O)[C@H]1CCCCN1; Nle = CCCC[C@H](N)C(=O)O; Aib = CC(C)(N)C(=O)O; GABA = NCCCC(=O)O

As to “Ac-[D-αMePro24, Cha27,28,36, Aib31]-PYY(23-36) (Ac-S[d(αMeP)]RH[Cha][Cha]NL[Aib]TRQR[Cha]-NH2; SMILES CC(=O)N[C@@H](CO)C(=O)N1CCC[C@]1(C)C(=O)N[C@@H](CCCNC(=N)N)C(=O)N[C@@H](Cc1c[nH]cn1)C(=O)N[C@@H](CC1CCCCC1)C(=O)N[C@@H](CC1CCCCC1)C(=O)N[C@@H](CC(N)=O)C(=O)N[C@@H](CC(C)C)C(=O)NC(C)(C)C(=O)N[C@H](C(=O)N[C@@H](CCCNC(=N)N)C(=O)N[C@@H](CCC(N)=O)C(=O)N[C@@H](CCCNC(=N)N)C(=O)N[C@@H](CC1CCCCC1)C(N)=O)[C@@H](C)O) [compound No. 155]”, the “RBA IC50 Ratio” value in experiment [1] is listed as 4.5. Moreover, the “GBA EC50 Ratio” value in experiment [2] worked out at 2.6.
The corresponding values for “Ac-[Dap22, D-Pro24, Pya(4)26, Cha27,36, Aib28,31, Lys30]-PYY(22-36) [compound No. 273]” are 1.2 and 1.6.
Regarding “Ac-[GABA24, Cha27,28,36, Aib31]-PYY(23-36) (Ac-S[GABA]RH[Cha][Cha]NL[Aib]TRQR[Cha]-NH2; SMILES CC(=O)N[C@@H](CO)C(=O)NCCCC(=O)N[C@@H](CCCNC(=N)N)C(=O)N[C@@H](Cc1c[nH]cn1)C(=O)N[C@@H](CC1CCCCC1)C(=O)N[C@@H](CC1CCCCC1)C(=O)N[C@@H](CC(N)=O)C(=O)N[C@@H](CC(C)C)C(=O)NC(C)(C)C(=O)N[C@H](C(=O)N[C@@H](CCCNC(=N)N)C(=O)N[C@@H](CCC(N)=O)C(=O)N[C@@H](CCCNC(=N)N)C(=O)N[C@@H](CC1CCCCC1)C(N)=O)[C@@H](C)O) [compound No. 156]”, in experiment [1], the “RBA IC50 Ratio” value is recorded as 5.8. Further, in experiment [2], the “GBA EC50 Ratio” value was 3.0.
For “Ac-[Gln23, D-Pro24, Pya(4)26, Cha27,36, Aib28,31, Lys30]-PYY(23-36) (Ac-Q[dP]R[4Pal][Cha][Aib]NK[Aib]TRQR[Cha]-NH2; SMILES CC(=O)N[C@@H](CCC(N)=O)C(=O)N1CCC[C@@H]1C(=O)N[C@@H](CCCNC(=N)N)C(=O)N[C@@H](Cc1ccncc1)C(=O)N[C@@H](CC1CCCCC1)C(=O)NC(C)(C)C(=O)N[C@@H](CC(N)=O)C(=O)N[C@@H](CCCCN)C(=O)NC(C)(C)C(=O)N[C@H](C(=O)N[C@@H](CCCNC(=N)N)C(=O)N[C@@H](CCC(N)=O)C(=O)N[C@@H](CCCNC(=N)N)C(=O)N[C@@H](CC1CCCCC1)C(N)=O)[C@@H](C)O) [compound No. 210]” the same measures were 1.3 and 0.9.
Regarding “Ac-[Glu23, D-Hyp24, Pya(4)26, Cha27,36, Aib28,31, Lys30]-PYY(23-36) (Ac-E[dHyp]R[4Pal][Cha][Aib]NK[Aib]TRQR[Cha]-NH2; SMILES CC(=O)N[C@@H](CCC(=O)O)C(=O)N1C[C@@H](O)C[C@@H]1C(=O)N[C@@H](CCCNC(=N)N)C(=O)N[C@@H](Cc1ccncc1)C(=O)N[C@@H](CC1CCCCC1)C(=O)NC(C)(C)C(=O)N[C@@H](CC(N)=O)C(=O)N[C@@H](CCCCN)C(=O)NC(C)(C)C(=O)N[C@H](C(=O)N[C@@H](CCCNC(=N)N)C(=O)N[C@@H](CCC(N)=O)C(=O)N[C@@H](CCCNC(=N)N)C(=O)N[C@@H](CC1CCCCC1)C(N)=O)[C@@H](C)O) [compound No. 208]”, the “RBA IC50 Ratio” value in experiment [1] came out at 3.4. For the same substance, the “GBA EC50 Ratio” value in experiment [2] worked out at 2.2.
The corresponding values for “Ac-[Glu23, D-Pic(2)24, Cha27,28,36, Aib31]-PYY(23-36) (Ac-E[dPip]RH[Cha][Cha]NL[Aib]TRQR[Cha]-NH2; SMILES CC(=O)N[C@@H](CCC(=O)O)C(=O)N1CCCC[C@@H]1C(=O)N[C@@H](CCCNC(=N)N)C(=O)N[C@@H](Cc1c[nH]cn1)C(=O)N[C@@H](CC1CCCCC1)C(=O)N[C@@H](CC1CCCCC1)C(=O)N[C@@H](CC(N)=O)C(=O)N[C@@H](CC(C)C)C(=O)NC(C)(C)C(=O)N[C@H](C(=O)N[C@@H](CCCNC(=N)N)C(=O)N[C@@H](CCC(N)=O)C(=O)N[C@@H](CCCNC(=N)N)C(=O)N[C@@H](CC1CCCCC1)C(N)=O)[C@@H](C)O) [compound No. 120]” are 17 and 10.
For “Ac-[Glu23, D-Pro24, Nle25, Pya(4)26, Cha27,28,36, Lys30, Aib31]-PYY(23-36) (Ac-E[dP][Nle][4Pal][Cha][Cha]NK[Aib]TRQR[Cha]-NH2; SMILES CCCC[C@H](NC(=O)[C@H]1CCCN1C(=O)[C@H](CCC(=O)O)NC(C)=O)C(=O)N[C@@H](Cc1ccncc1)C(=O)N[C@@H](CC1CCCCC1)C(=O)N[C@@H](CC1CCCCC1)C(=O)N[C@@H](CC(N)=O)C(=O)N[C@@H](CCCCN)C(=O)NC(C)(C)C(=O)N[C@H](C(=O)N[C@@H](CCCNC(=N)N)C(=O)N[C@@H](CCC(N)=O)C(=O)N[C@@H](CCCNC(=N)N)C(=O)N[C@@H](CC1CCCCC1)C(N)=O)[C@@H](C)O) [compound No. 172]” the same measures were 2.3 and 1.3.
The corresponding values for “Ac-[Glu23, D-Pro24, Nle25, Pya(4)26, Cha27,36, Aib28,31, Lys30]-PYY(23-36) (Ac-E[dP][Nle][4Pal][Cha][Aib]NK[Aib]TRQR[Cha]-NH2; SMILES CCCC[C@H](NC(=O)[C@H]1CCCN1C(=O)[C@H](CCC(=O)O)NC(C)=O)C(=O)N[C@@H](Cc1ccncc1)C(=O)N[C@@H](CC1CCCCC1)C(=O)NC(C)(C)C(=O)N[C@@H](CC(N)=O)C(=O)N[C@@H](CCCCN)C(=O)NC(C)(C)C(=O)N[C@H](C(=O)N[C@@H](CCCNC(=N)N)C(=O)N[C@@H](CCC(N)=O)C(=O)N[C@@H](CCCNC(=N)N)C(=O)N[C@@H](CC1CCCCC1)C(N)=O)[C@@H](C)O) [compound No. 227]” are 7.5 and 6.9.
As to “Ac-[Glu23, D-Pro24, Pya(4)26, Cha27,28,36, Aib31]-PYY(23-36) (Ac-E[dP]R[4Pal][Cha][Cha]NL[Aib]TRQR[Cha]-NH2; SMILES CC(=O)N[C@@H](CCC(=O)O)C(=O)N1CCC[C@@H]1C(=O)N[C@@H](CCCNC(=N)N)C(=O)N[C@@H](Cc1ccncc1)C(=O)N[C@@H](CC1CCCCC1)C(=O)N[C@@H](CC1CCCCC1)C(=O)N[C@@H](CC(N)=O)C(=O)N[C@@H](CC(C)C)C(=O)NC(C)(C)C(=O)N[C@H](C(=O)N[C@@H](CCCNC(=N)N)C(=O)N[C@@H](CCC(N)=O)C(=O)N[C@@H](CCCNC(=N)N)C(=O)N[C@@H](CC1CCCCC1)C(N)=O)[C@@H](C)O) [compound No. 141]”, the “RBA IC50 Ratio” value in experiment [1] was 4.6. The “GBA EC50 Ratio” value in experiment [2] is reported as 1.3.
On to “Ac-[Glu23, D-Pro24, Pya(4)26, Cha27,36, Aib28,31, Lys30]-PYY(22-36) (Ac-AE[dP]R[4Pal][Cha][Aib]NK[Aib]TRQR[Cha]-NH2; SMILES CC(=O)N[C@@H](C)C(=O)N[C@@H](CCC(=O)O)C(=O)N1CCC[C@@H]1C(=O)N[C@@H](CCCNC(=N)N)C(=O)N[C@@H](Cc1ccncc1)C(=O)N[C@@H](CC1CCCCC1)C(=O)NC(C)(C)C(=O)N[C@@H](CC(N)=O)C(=O)N[C@@H](CCCCN)C(=O)NC(C)(C)C(=O)N[C@H](C(=O)N[C@@H](CCCNC(=N)N)C(=O)N[C@@H](CCC(N)=O)C(=O)N[C@@H](CCCNC(=N)N)C(=O)N[C@@H](CC1CCCCC1)C(N)=O)[C@@H](C)O) [compound No. 220]”, for which the “RBA IC50 Ratio” value in experiment [1] is reported as 5.3. The “GBA EC50 Ratio” value in experiment [2] is 3.5.
